Test results published in the supplement of paper PMC11136658.

Tested on: peptide library, one residue held at a place counted from the Y acceptor
Assay: relative phosphorylation of the sub-library (ratio to the mean residue at this position); higher = residue favoured
In short: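 Peptide library mixtures, biotinylated and centred on Tyr, each fixed one residue at one position from −5 to +5. Purified recombinant kinases were incubated with them for 90 min in 384-well plates alongside 50 μM ATP and γ-32P-ATP, and the captured, rinsed peptides on streptavidin membranes were measured by phosphorimaging and ImageQuant. Normalization divided each position's intensities by the sum of its 18 randomized residues (16 for the Ser/Thr-free library) and multiplied by that number, so that values give phosphorylation relative to the mean randomized residue.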

Chain of EPHB2, construct: aa611-893, human (P29323 611-893, looked up): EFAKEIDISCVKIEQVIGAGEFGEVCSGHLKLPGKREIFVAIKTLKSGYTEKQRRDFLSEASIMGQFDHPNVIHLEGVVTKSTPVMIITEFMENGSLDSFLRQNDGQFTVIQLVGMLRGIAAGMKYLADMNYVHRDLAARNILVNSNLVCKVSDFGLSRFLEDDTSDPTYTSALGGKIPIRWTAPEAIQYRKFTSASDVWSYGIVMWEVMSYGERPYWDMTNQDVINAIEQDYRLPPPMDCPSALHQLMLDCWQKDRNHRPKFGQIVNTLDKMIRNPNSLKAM
Chain of INSR, construct: aa1110-end, human (P06213 1110-1382, looked up): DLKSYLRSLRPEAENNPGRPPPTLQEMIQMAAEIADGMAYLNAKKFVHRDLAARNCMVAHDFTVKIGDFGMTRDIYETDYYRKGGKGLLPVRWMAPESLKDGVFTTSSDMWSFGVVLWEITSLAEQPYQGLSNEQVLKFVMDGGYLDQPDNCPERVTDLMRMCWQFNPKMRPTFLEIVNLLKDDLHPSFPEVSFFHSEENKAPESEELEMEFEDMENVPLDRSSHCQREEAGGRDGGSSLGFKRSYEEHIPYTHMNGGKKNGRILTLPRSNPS

EPHB2, construct: aa611-893, human (from UniProt P29323)
relative phosphorylation
Conditions | at +1 | at +2 | at +3 | at +4 | at +5 | at -1 | at -2 | at -3 | at -4 | at -5
A fixed | 1.72 | 0.968 | 0.884 | 0.898 | 1.16 | 0.485 | 1.16 | 0.764 | 1.06 | 1.02
D fixed | 1.17 | 1.15 | 0.473 | 1.11 | 1.01 | 2.48 | 1.32 | 1.45 | 1.35 | 1.24
E fixed | 2.89 | 1.54 | 0.434 | 1.07 | 1.06 | 1.55 | 1.47 | 1.76 | 1.28 | 0.996
F fixed | 0.59 | 1.27 | 1.36 | 0.922 | 0.937 | 0.938 | 0.635 | 1.33 | 1.11 | 0.972
G fixed | 1.1 | 0.438 | 0.65 | 1.2 | 1.18 | 0.224 | 1.17 | 0.845 | 1.28 | 1.05
H fixed | 0.443 | 0.626 | 1.29 | 1.1 | 0.998 | 0.494 | 0.825 | 0.807 | 0.872 | 0.921
I fixed | 1.23 | 1.39 | 1.72 | 0.817 | 0.889 | 2.02 | 0.77 | 1 | 0.898 | 0.905
K fixed | 0.166 | 0.428 | 0.273 | 0.699 | 0.691 | 0.207 | 0.791 | 0.522 | 0.784 | 0.995
L fixed | 0.752 | 0.958 | 1.31 | 0.864 | 1.06 | 1.85 | 0.769 | 0.927 | 0.963 | 0.946
M fixed | 1.33 | 0.838 | 1.19 | 1.09 | 0.934 | 0.759 | 0.674 | 0.919 | 0.868 | 0.942
N fixed | 0.41 | 0.927 | 0.646 | 0.796 | 0.853 | 2.06 | 1.26 | 1.03 | 0.937 | 1.11
P fixed | 0.171 | 0.732 | 1.27 | 1.16 | 1.46 | 0.343 | 1.33 | 0.945 | 1.09 | 1.19
Q fixed | 1.2 | 0.882 | 0.762 | 0.976 | 0.868 | 0.502 | 1.17 | 0.933 | 1.25 | 1.12
R fixed | 0.22 | 0.618 | 0.433 | 0.771 | 0.756 | 0.245 | 0.749 | 0.603 | 0.802 | 0.96
S fixed | 0.992 | 0.953 | 0.769 | 1.03 | 1.11 | 0.47 | 1.43 | 0.968 | 0.898 | 0.88
T fixed | 0.766 | 1.1 | 0.908 | 0.949 | 1.05 | 1.03 | 0.923 | 0.794 | 0.667 | 0.726
V fixed | 1.77 | 1.78 | 1.92 | 1.02 | 0.934 | 1.48 | 0.878 | 0.928 | 0.851 | 0.957
W fixed | 1.07 | 1.41 | 1.7 | 1.52 | 1.04 | 0.868 | 0.657 | 1.46 | 1.05 | 1.07
pThr fixed | 1.64 | 1.98 | 0.439 | 0.858 | 0.64 | 1.77 | 1.05 | 0.962 | 0.894 | 0.877
pTyr fixed | 1.75 | 4.02 | 0.872 | 1.28 | 1.1 | 2.15 | 1.15 | 1.12 | 1.04 | 1.12

INSR, construct: aa1110-end, human (from UniProt P06213)
relative phosphorylation
Conditions | at +1 | at +2 | at +3 | at +4 | at +5 | at -1 | at -2 | at -3 | at -4 | at -5
A fixed | 1.55 | 0.678 | 0.593 | 0.95 | 0.917 | 1.09 | 1.09 | 0.925 | 1.09 | 1.07
D fixed | 0.383 | 0.584 | 0.264 | 1.04 | 0.792 | 2.65 | 1.14 | 1.34 | 1.3 | 1.14
E fixed | 0.627 | 1.31 | 0.234 | 0.976 | 0.731 | 1.14 | 1.26 | 1.48 | 1.31 | 0.983
F fixed | 1.41 | 1.13 | 1.62 | 1.02 | 1.56 | 0.696 | 0.621 | 0.912 | 1.03 | 0.834
G fixed | 0.731 | 0.419 | 0.545 | 0.809 | 0.858 | 0.554 | 1.24 | 0.872 | 1.36 | 1.23
H fixed | 1.67 | 0.915 | 1.47 | 1.16 | 1.17 | 1.16 | 0.95 | 1.11 | 0.965 | 0.975
I fixed | 1.21 | 1.16 | 1.92 | 0.902 | 0.978 | 1.04 | 0.87 | 0.616 | 0.817 | 0.935
K fixed | 0.275 | 0.602 | 0.475 | 0.951 | 0.919 | 0.27 | 0.8 | 0.861 | 0.835 | 1.11
L fixed | 0.986 | 1.35 | 1.61 | 0.841 | 1.14 | 0.981 | 0.957 | 0.867 | 0.879 | 0.913
M fixed | 2.41 | 1.53 | 1.74 | 1.16 | 1.08 | 0.789 | 0.743 | 0.929 | 0.804 | 0.976
N fixed | 0.312 | 0.941 | 0.347 | 0.762 | 0.813 | 2.16 | 1.25 | 1.51 | 0.939 | 1.22
P fixed | 0.317 | 0.706 | 0.421 | 0.704 | 1.05 | 1.04 | 1.29 | 0.905 | 1.17 | 0.956
Q fixed | 0.805 | 0.811 | 0.46 | 1.19 | 0.806 | 0.747 | 1.22 | 1.06 | 1.22 | 1.1
R fixed | 0.227 | 0.868 | 0.706 | 0.953 | 1.02 | 0.266 | 0.831 | 0.913 | 0.913 | 1.13
S fixed | 0.926 | 0.804 | 0.534 | 1.07 | 1.04 | 0.901 | 1.18 | 1.09 | 0.814 | 0.896
T fixed | 0.946 | 0.781 | 0.673 | 0.843 | 0.84 | 0.97 | 1.08 | 0.941 | 0.731 | 0.828
V fixed | 1.45 | 1.08 | 1.13 | 0.968 | 0.937 | 0.989 | 0.796 | 0.698 | 0.746 | 0.798
W fixed | 1.76 | 2.34 | 3.26 | 1.69 | 1.35 | 0.558 | 0.684 | 0.978 | 1.08 | 0.902
pThr fixed | 1.28 | 0.717 | 0.229 | 0.55 | 0.612 | 1.28 | 1.01 | 1.11 | 1.09 | 0.769
pTyr fixed | 1.36 | 2.45 | 0.487 | 1.48 | 0.585 | 4.11 | 1.68 | 1.51 | 1.28 | 0.991
